Measurements published in patent US6489299B2, “Methods for treatment of multiple sclerosis using peptide analogues at position 91 of human myelin basic protein” (Stanford University Medical Center, priority 1994, dated 2002).

Experiments:
[1] = test system: MBP specific rat T cell line (NBI); test: Antigen-specific T cell line proliferation assay; format: cell-based; conditions: three days, [3H]-thymidine; analogues at 20-120 μM; FIG. 3
Procedure: FIG. 3 is a graph displaying the proliferative response of the T cell line NBI to position 91-substituted analogues. Ten different substitutions were tested. The proliferative response of NBI in response to concentrations of analogues ranging from 0 to 150 μM was determined. Proliferation is shown as counts per minute. Standard errors of the mean were less than ±10%. MBP 87-99; peptides from human myelin basic protein containing residues 87 to 99; K, lysine; R, arginine; N, asparagine; H, histidine; L, leucine; S, serine; G, glycine; k, D-lysine; E, glutamic acid; F, phenylalanine; and A, alanine.
In the direct proliferation assay, MBP (87-99) reactive T cell lines may be used as target cells. T cell lines are established from lymph nodes taken from rats injected with MBP (87-99). […] After 5 to 6 passages in this manner, the proliferative potential of the cell lines are determined. […] Cultures are harvested and incorporated counts determined. Mean CPM and standard error of the mean are calculated from triplicate cultures. […]
For this antigen-specific proliferation assay, T cell lines as established in Example 3 were used. […] Cultures were harvested on fiberglass filters and the proliferative response expressed as CPM±SD or as stimulation index (SI) (mean CPM from test cultures divided by mean CPM from control cultures).

[2] = test system: lymph node cells (LNC) reactive to MBP (87-99); test: Antigen-specific lymph node cell proliferation assay; format: cell-based, Lewis rat; conditions: 10 μM peptide, 3 days, [3H]-thymidine; FIG. 4
Procedure: FIG. 4 is a graph displaying the proliferative response of MBP-reactive lymph node cells to position 91-substituted analogues. Two different substitutions were tested. The proliferative response of lymph node cells to 10 μM of MBP (87-99), motilin, A91 or K91 was determined. Proliferation is shown as counts per minute. BKG, no peptide added; 87-99, MBP (87-99); motilin, an unrelated peptide; A91, peptide analogue with alanine at position 91; K91, peptide analogue with D-lysine at position 91.
As an alternative to the use of T cell lines as described above, draining lymph node cells from Lewis rats immunized with MBP (87-99) may be used. […] Cultures are harvested on fiberglass filters and counted in a scintillation counter. Mean CPM and the standard error of the mean are calculated from data determined in triplicate cultures. […]
For the assay, 100 μl of the lymph node suspension was added to 96-well flat-bottom wells in the presence of an equal volume of medium containing 10 μM of various peptides (including: motilin as a negative control; MBP87-99; medium only, or alanine or D-amino acid substituted at position 91). […] The plates were then harvested with a Matrix filtermate harvester (Packard) and counted using an Automatic Direct Beta Counter (Packard). Mean cpm and the standard error of the mean were calculated from triplicate wells.

EAE = conditions: rat, in vivo
Procedure: In addition, as a safety measure, but not essential to this invention, suitable peptide analogues may be tested for direct induction of EAE. As described in detail in Example 2, various amounts of peptide analogues are injected at the base of the tail of rats, and the rats examined daily for signs of EAE. A peptide analogue which is not considered to cause EAE has a mean cumulative score of less than or equal to 1 over seven days when 1 mg (5 mg/kg) in complete Freund's adjuvant is injected.
MBP peptides and analogues were dissolved in phosphate-buffered saline (PBS) and emulsified with an equal volume of incomplete Freund's adjuvant supplemented with 4 mg/ml heat-killed Mycobacterium tuberculosis H37Ra in oil (Difco Laboratories, Inc., Detroit, Mich.). Rats were immunized subcutaneously in the hind foot pads with 0.1 ml of the emulsion and were monitored for clinical signs daily by an observer blind to the treatment protocol. For intravenous injections MBP peptides and analogues were dissolved in normal saline. EAE was scored as follows: 0, clinically normal; 1, flaccid tail; 2, hind limb paralysis; 3, front and hind limb paralysis.
The ability of peptide analogues to cause EAE is assessed in vivo. Rats were injected with MBP (87-99) or (91K>A) peptide analogue as described in Example 2. Animals were monitored daily for evidence of EAE. Rats receiving MBP (87-99) had 100% incidence (18/18 rats) of EAE with a mean maximum clinical score of 2.4±0.2. In contrast, 0/12 rats receiving the peptide analogue (91k>A) had EAE.

multiple sclerosis = conditions: human, in vivo; cited from earlier work

Molecule: CC[C@H](C)[C@H](NC(=O)[C@@H]1CCCN1C(=O)[C@@H](NC(=O)[C@@H](N)Cc1ccccc1)C(C)C)C(=O)N[C@@H](Cc1ccccc1)C(=O)N[C@H](C(=O)N[C@@H](Cc1ccc(O)cc1)C(=O)NCC(=O)N[C@@H](CCC(=O)O)C(=O)N[C@@H](CC(C)C)C(=O)N[C@@H](CCC(N)=O)C(=O)N[C@@H](CCCNC(=N)N)C(=O)N[C@@H](CCSC)C(=O)N[C@@H](CCC(N)=O)C(=O)N[C@@H](CCC(=O)O)C(=O)N[C@@H](CCCCN)C(=O)N[C@@H](CCC(=O)O)C(=O)N[C@@H](CCCNC(=N)N)C(=O)N[C@@H](CC(N)=O)C(=O)N[C@@H](CCCCN)C(=O)NCC(=O)N[C@@H](CCC(N)=O)C(=O)O)[C@@H](C)O [motilin, reference compound]
- proliferation of the MBP specific rat T cell line (in words) [1]: does not stimulate proliferation at any dose
- proliferative response of MBP (87-99)-reactive lymph node cells (in words) [2]: failed to respond as well

Molecule: MBP(68-88): EAE-inducing myelin basic protein peptide from a different region (KRTADPKNAWQDAHPADPGSR; UniProt P02686 68-88, looked up, fragment) [reference compound]
- EAE Incidence (EAE): 6/6
- EAE Mean Maximum Clinical Score (EAE): 3 ± 0

B1: IFN-γ: cytokine administered to MS patients in a pilot study (protein, UniProt P01579 24-161, looked up)
Interferon gamma: QDPYVKEAENLKKYFNAGHSDVADNGTLFLGILKNWKEESDRKIMQSQIVSFYFKLFKNFKDDQSIQKSVETIKEDMNVKFFNSNKKKRDDFEKLTNYSVTDLNVQRKAIHELIQVMAELSPAAKTGKRKRSQMLFRG
- patients with a clinical exacerbation within one month after initiation of treatment (multiple sclerosis): 7 of 18
- specific response to MBP (in words) (multiple sclerosis): increase
